From the RNAGym collection of RNA variant scans (doi:10.1073/pnas.2313332121)

B1: TPR t1 (parent)
chain: GACCAAUCUGCCCUCAGAGCUCGAGAACAUCUUCGGAUGCAGAGGAGGCAGGCUUCGGUGGCGCGAUAGCGCCAACGUCCUCAACCUCCAAUGCAUCCCACCACAUGAUGAUGCCUGAAGAGCCUUGGUUUUUUG

Variants of: B1
Test: polymerase ribozyme fitness, log enrichment relative to wild type (log ratio); higher = more active; in vitro selection for triplet polymerase activity
In short: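 Fitness measures genotype enrichment against wild-type enrichment on a logarithmic scale, with inverse-variance-weighted averaging of replicates. The logarithm is base 2, and genotypes were kept only with ≥10 input reads and ≥1 read per output in Illumina sequencing. The sequenced libraries came from one triplicate in vitro selection round, including frozen incubation at −7 °C, of PCR-built, transcribed mutant libraries of each subunit of a heterodimeric triplet polymerase ribozyme.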
For G44A G45U G77A U129C, the “polymerase ribozyme fitness (log ratio)” value was -3.02.
In the case of G44U G69C, the “polymerase ribozyme fitness (log ratio)” value is reported as -0.825.
In the case of G44C A83U, the “polymerase ribozyme fitness (log ratio)” value is reported as -0.396.
For G44A G52U U87A, the “polymerase ribozyme fitness (log ratio)” value was -2.35.
For G45A C85U C94A, the “polymerase ribozyme fitness (log ratio)” value was -2.05.
For A43U G58U G113A, the “polymerase ribozyme fitness (log ratio)” value was -2.63.
For G45A C53U C97U C115U U126C U130A, the “polymerase ribozyme fitness (log ratio)” value was -5.76.
In the case of A43U C53U A75G C88A U92C, the “polymerase ribozyme fitness (log ratio)” value is reported as -3.05.
In the case of A46C C62U U106G, the “polymerase ribozyme fitness (log ratio)” value is reported as -2.88.
In the case of G45C C53G C73A, the “polymerase ribozyme fitness (log ratio)” value is reported as -0.795.
For G44C U55A C70G U126G, the “polymerase ribozyme fitness (log ratio)” value was -5.73.
For G45C G69C, the “polymerase ribozyme fitness (log ratio)” value was -2.23.
For G44A C88A, the “polymerase ribozyme fitness (log ratio)” value was -1.02.
For G45U A50U G117U, the “polymerase ribozyme fitness (log ratio)” value was -4.81.
For G44C U55A C70U C88G G117C, the “polymerase ribozyme fitness (log ratio)” value was -6.75.
In the case of A46C C64A G69C C94A, the “polymerase ribozyme fitness (log ratio)” value is reported as -2.85.
With G45C U125A the “polymerase ribozyme fitness (log ratio)” value was -1.86.
With A43U G48A C56U the “polymerase ribozyme fitness (log ratio)” value was -1.58.
For G45A C114A, the “polymerase ribozyme fitness (log ratio)” value was -1.97.
For A43G C114G, the “polymerase ribozyme fitness (log ratio)” value was -3.66.
For G45U G48U A68C A74C A95G C97A C98U C104U G122U, the “polymerase ribozyme fitness (log ratio)” value was -6.66.
For G44C G63U, the “polymerase ribozyme fitness (log ratio)” value was -1.98.
In the case of G44C G47U, the “polymerase ribozyme fitness (log ratio)” value is reported as -1.8.
For G45A C94U G120C, the “polymerase ribozyme fitness (log ratio)” value was 0.045.
With G45C C53U U78A U112C the “polymerase ribozyme fitness (log ratio)” value was 0.64.
For A43U G44U, the “polymerase ribozyme fitness (log ratio)” value was -1.67.
With G45U A66C G93C U96C C115A the “polymerase ribozyme fitness (log ratio)” value was -4.28.
With G45U G52A C72U G110C C123U the “polymerase ribozyme fitness (log ratio)” value was -6.25.
In the case of A43G C64U, the “polymerase ribozyme fitness (log ratio)” value is reported as -1.23.
In the case of G45C G93U, the “polymerase ribozyme fitness (log ratio)” value is reported as -3.67.
For G44U G71U, the “polymerase ribozyme fitness (log ratio)” value was -1.06.
In the case of G44U A50C C73U U92C, the “polymerase ribozyme fitness (log ratio)” value is reported as -2.12.
In the case of G45A C98U, the “polymerase ribozyme fitness (log ratio)” value is reported as -1.75.
In the case of G45U G60C C88G, the “polymerase ribozyme fitness (log ratio)” value is reported as -1.14.
In the case of G45A C82A, the “polymerase ribozyme fitness (log ratio)” value is reported as -1.1.
In the case of G44C C98U U126C, the “polymerase ribozyme fitness (log ratio)” value is reported as -3.05.
In the case of G45C G60C U129A, the “polymerase ribozyme fitness (log ratio)” value is reported as -2.68.
For A43G G47U, the “polymerase ribozyme fitness (log ratio)” value was -3.37.
In the case of G45A G48U, the “polymerase ribozyme fitness (log ratio)” value is reported as -1.58.
With G44A C89A the “polymerase ribozyme fitness (log ratio)” value was -1.04.
With G45U C56G C73A U116C the “polymerase ribozyme fitness (log ratio)” value was -4.92.
In the case of A46G C49A U112C, the “polymerase ribozyme fitness (log ratio)” value is reported as 1.28.
For A43G C73G A75C U112A, the “polymerase ribozyme fitness (log ratio)” value was -3.33.
With G44U C82G the “polymerase ribozyme fitness (log ratio)” value was -1.77.
In the case of G44U C70U C72U C79U G122A, the “polymerase ribozyme fitness (log ratio)” value is reported as -2.61.
With G44C A95U G110A the “polymerase ribozyme fitness (log ratio)” value was -2.88.
In the case of G45A U78C C86A G120U, the “polymerase ribozyme fitness (log ratio)” value is reported as -2.19.
With G45A G63A C104A the “polymerase ribozyme fitness (log ratio)” value was -3.61.
With A46C C56U U78A A90G C94U A111C the “polymerase ribozyme fitness (log ratio)” value was 0.0877.
For G44A C102U, the “polymerase ribozyme fitness (log ratio)” value was -4.04.
With G45A G61U the “polymerase ribozyme fitness (log ratio)” value was -0.292.
With G45A G61A the “polymerase ribozyme fitness (log ratio)” value was -0.513.
In the case of G45A A105G, the “polymerase ribozyme fitness (log ratio)” value is reported as -3.69.
In the case of A43U G69C, the “polymerase ribozyme fitness (log ratio)” value is reported as -2.32.
In the case of G45A G110A, the “polymerase ribozyme fitness (log ratio)” value is reported as -1.34.
In the case of G45U C72G G93A, the “polymerase ribozyme fitness (log ratio)” value is reported as -2.7.
With G45U C62U U112G U126A G128A U130A the “polymerase ribozyme fitness (log ratio)” value was -3.11.
For G44A A100C G110A, the “polymerase ribozyme fitness (log ratio)” value was -4.23.
With A46C C72A U112C C124U the “polymerase ribozyme fitness (log ratio)” value was 1.22.
For G44A A50U G60U U132C, the “polymerase ribozyme fitness (log ratio)” value was -2.38.
In the case of G44U G48U G57C C104A, the “polymerase ribozyme fitness (log ratio)” value is reported as -3.32.
In the case of G45A G69U A103C, the “polymerase ribozyme fitness (log ratio)” value is reported as -2.35.
In the case of G44C A95C, the “polymerase ribozyme fitness (log ratio)” value is reported as -2.1.
For A43U G93U, the “polymerase ribozyme fitness (log ratio)” value was -2.7.
In the case of G45C C53G U81A A91C, the “polymerase ribozyme fitness (log ratio)” value is reported as -4.15.
For G44A G71A C73A, the “polymerase ribozyme fitness (log ratio)” value was -2.85.
For A43U G77C U78A C79U G120U U131C, the “polymerase ribozyme fitness (log ratio)” value was -1.51.
For G45A C53A U81C, the “polymerase ribozyme fitness (log ratio)” value was -0.267.
For G44A G69A C89A C124G, the “polymerase ribozyme fitness (log ratio)” value was -3.8.
In the case of A43U G52U A68G C124U, the “polymerase ribozyme fitness (log ratio)” value is reported as -5.64.
For G44C U59G C80A, the “polymerase ribozyme fitness (log ratio)” value was -4.66.
With A43G G77A A83C C88G A121U G128U the “polymerase ribozyme fitness (log ratio)” value was -5.57.
In the case of G44C G60U U116C C124A, the “polymerase ribozyme fitness (log ratio)” value is reported as -0.335.
For G44U C114A U116G, the “polymerase ribozyme fitness (log ratio)” value was -4.56.
In the case of G44C C53G G61A, the “polymerase ribozyme fitness (log ratio)” value is reported as -0.806.
For A43G U130C, the “polymerase ribozyme fitness (log ratio)” value was -1.1.
In the case of A46C C72U U81A A105C, the “polymerase ribozyme fitness (log ratio)” value is reported as -4.47.
In the case of G45U C72A U87A A121C, the “polymerase ribozyme fitness (log ratio)” value is reported as 0.113.
With G44C U112C the “polymerase ribozyme fitness (log ratio)” value was 0.766.
For G44U U125A U131A, the “polymerase ribozyme fitness (log ratio)” value was -2.47.
For G44U C80U, the “polymerase ribozyme fitness (log ratio)” value was -1.59.
With A43G G113C the “polymerase ribozyme fitness (log ratio)” value was -3.
For A43G G113U, the “polymerase ribozyme fitness (log ratio)” value was -2.72.
In the case of G45A A50U U130C, the “polymerase ribozyme fitness (log ratio)” value is reported as -0.0855.
